The target in the test is T1, soluble human FcRn complexed with β2-microglobulin (human, UniProt P61769 21-119, limits assumed).
T1 construct: also called hFcRn
The test can be described thus: Biacore SPR, pH 7.0.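 Note: test antibodies captured on a Protein L chip with human FcRn flowed over as analyte, KD obtained as the ratio of dissociation to association rate constants.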 A general note: SPR reads the build-up and loss of mass on a sensor chip optically.

T1 sequence (chain, as listed by the source limits assumed, chain 1 of 2): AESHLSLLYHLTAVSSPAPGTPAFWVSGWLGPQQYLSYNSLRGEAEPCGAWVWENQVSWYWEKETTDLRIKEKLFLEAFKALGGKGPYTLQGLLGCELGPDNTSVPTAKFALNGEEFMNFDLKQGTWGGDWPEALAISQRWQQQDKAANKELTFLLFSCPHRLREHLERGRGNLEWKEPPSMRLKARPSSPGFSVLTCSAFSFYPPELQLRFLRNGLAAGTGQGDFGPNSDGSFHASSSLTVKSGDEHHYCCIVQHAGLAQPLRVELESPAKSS
T1 sequence (P61769 21-119 limits assumed, chain 2 of 2): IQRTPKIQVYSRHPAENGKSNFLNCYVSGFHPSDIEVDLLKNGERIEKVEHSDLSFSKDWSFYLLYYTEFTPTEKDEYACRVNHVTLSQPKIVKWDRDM

B1: IgG1-F1302 (antibody)
heavy: QVQLQESGPGLVKPSETLSLTCAVSGHSISHDHAWSWVRQPPGEGLEWIGFISYSGITNYNPSLQGRVTISRDNSKNTLYLQMNSLRAEDTAVYYCARSLARTTAMDYWGEGTLVTVSSASTKGPSVFPLAPSSKSTSGGTAALGCLVKDYFPEPVTVSWNSGALTSGVHTFPAVLQSSGLYSLSSVVTVPSSSLGTQTYICNVNHKPSNTKVDKKVEPKSCDKTHTCPPCPAPELRGGPKVFLFPPKPKDTLYISREPEVTCVVVDVSHEDPEVKFNWYVDGVEVHNAKTKPREEQYNSTYRVVSVLTVLHQDWLNGKEYKCKVSNKALPAPIEKTISKAKGQPREPQVYTLPPSRDELTKNQVSLTCLVKGFYPSDIAVEWESNGQPENNYKTTPPVLDSDGSFFLYSKLTVDKSRWQQGNVFSCSVMHEALDYHYTKKDLSLSP
light: not shown
notes: EU numbering; copies: 2 + 2
With B1, the Kd – broadly, a measure of binding affinity in units of concentration – was found to be 215 nM.

B2: IgG1-F1312 (antibody)
heavy: QVQLQESGPGLVKPSETLSLTCAVSGHSISHDHAWSWVRQPPGEGLEWIGFISYSGITNYNPSLQGRVTISRDNSKNTLYLQMNSLRAEDTAVYYCARSLARTTAMDYWGEGTLVTVSSASTKGPSVFPLAPSSKSTSGGTAALGCLVKDYFPEPVTVSWNSGALTSGVHTFPAVLQSSGLYSLSSVVTVPSSSLGTQTYICNVNHKPSNTKVDKKVEPKSCDKTHTCPPCPAPELRGGPKVFLFPPKPKDTLYISRTPEVTCVVVDVSHEDPEVKFNWYVDGVEVHNAKTKPREEQYNSTYRVVSVLTVLHQDWLNGKEYKCKVSNKALPAPIEKTISKAKGQPREPQVYTLPPSRDELTKNQVSLTCLVKGFYPSDIAVEWESNGQPENNYKTTPPVLDSDGSFFLYSKLTVDKSRWQQGNLFLCSVMHEALDYHVTQKSLSLSP
light: not shown
notes: EU numbering; copies: 2 + 2
The molecule B2 registered an equilibrium dissociation constant (Kd) of 179 nM.

B3: IgG1-F1313 (antibody)
heavy: QVQLQESGPGLVKPSETLSLTCAVSGHSISHDHAWSWVRQPPGEGLEWIGFISYSGITNYNPSLQGRVTISRDNSKNTLYLQMNSLRAEDTAVYYCARSLARTTAMDYWGEGTLVTVSSASTKGPSVFPLAPSSKSTSGGTAALGCLVKDYFPEPVTVSWNSGALTSGVHTFPAVLQSSGLYSLSSVVTVPSSSLGTQTYICNVNHKPSNTKVDKKVEPKSCDKTHTCPPCPAPELRGGPKVFLFPPKPKDTLYISRTPEVTCVVVDVSHEDPEVKFNWYVDGVEVHNAKTKPREEQYNSTYRVVSVLTVLHQDWLNGKEYKCKVSNKALPAPIEKTISKAKGQPREPQVYTLPPSRDELTKNQVSLTCLVKGFYPSDIAVEWESNGQPENNYKTTPPVLDSDGSFFLYSKLTVDKSRWQQGNVFSCSVMHEALDYHVTAKALSLSP
light: not shown
notes: EU numbering; copies: 2 + 2
In the case of B3, the Kd was found to be 177 nM.

B4: IgG1-F1308 (antibody)
heavy: QVQLQESGPGLVKPSETLSLTCAVSGHSISHDHAWSWVRQPPGEGLEWIGFISYSGITNYNPSLQGRVTISRDNSKNTLYLQMNSLRAEDTAVYYCARSLARTTAMDYWGEGTLVTVSSASTKGPSVFPLAPSSKSTSGGTAALGCLVKDYFPEPVTVSWNSGALTSGVHTFPAVLQSSGLYSLSSVVTVPSSSLGTQTYICNVNHKPSNTKVDKKVEPKSCDKTHTCPPCPAPELRGGPKVFLFPPKPKDTLYISRTPEVTCVVVDVSHEDPEVKFNWYVDGVEVHNAKTKPREEQYNSTYRVVSVLTVLHQDWLNGKEYKCKVSNKALPAPIEKTISKAKGQPREPQVYTLPPSRDELTKNQVSLTCLVKGFYPSDIAVEWESNGQPENNYKTTPPVLDSDGSFFLYSKLTVDKSRWQQGNLFLCSVMHEALHYHVTQKSLSLSP
light: not shown
notes: EU numbering; copies: 2 + 2
B4 registered a Kd of 206 nM.

B5: IgG1-F1303 (antibody)
heavy: QVQLQESGPGLVKPSETLSLTCAVSGHSISHDHAWSWVRQPPGEGLEWIGFISYSGITNYNPSLQGRVTISRDNSKNTLYLQMNSLRAEDTAVYYCARSLARTTAMDYWGEGTLVTVSSASTKGPSVFPLAPSSKSTSGGTAALGCLVKDYFPEPVTVSWNSGALTSGVHTFPAVLQSSGLYSLSSVVTVPSSSLGTQTYICNVNHKPSNTKVDKKVEPKSCDKTHTCPPCPAPELRGGPKVFLFPPKPKDTLYISREPEVTCVVVDVSHEDPEVKFNWYVDGVEVHNAKTKPREEQYNSTYRVVSVLTVLHQDWLNGKEYKCKVSNKALPAPIEKTISKAKGQPREPQVYTLPPSRDELTKNQVSLTCLVKGFYPSDIAVEWESNGQPENNYKTTPPVLDSDGSFFLYSKLTVDKSRWQQGNVFSCSVMHEALDYHTTKKDLSLSP
light: not shown
notes: EU numbering; copies: 2 + 2
For B5, the Kd was 210 nM.

B6: IgG1-F1305 (antibody)
heavy: QVQLQESGPGLVKPSETLSLTCAVSGHSISHDHAWSWVRQPPGEGLEWIGFISYSGITNYNPSLQGRVTISRDNSKNTLYLQMNSLRAEDTAVYYCARSLARTTAMDYWGEGTLVTVSSASTKGPSVFPLAPSSKSTSGGTAALGCLVKDYFPEPVTVSWNSGALTSGVHTFPAVLQSSGLYSLSSVVTVPSSSLGTQTYICNVNHKPSNTKVDKKVEPKSCDKTHTCPPCPAPELRGGPKVFLFPPKPKDTLYISRTPEVTCVVVDVSHEDPEVKFNWYVDGVEVHNAKTKPREEQYNSTYRVVSVLTVLHQDWLNGKEYKCKVSNKALPAPIEKTISKAKGQPREPQVYTLPPSRDELTKNQVSLTCLVKGFYPSDIAVEWESNGQPENNYKTTPPVLDSDGSFFLYSKLTVDKSRWQQGNVFSCSVMHEALDYHVTRKDLSLSP
light: not shown
notes: EU numbering; copies: 2 + 2
B6 displayed a Kd of 205 nM.

B7: IgG1-F1304 (antibody)
heavy: QVQLQESGPGLVKPSETLSLTCAVSGHSISHDHAWSWVRQPPGEGLEWIGFISYSGITNYNPSLQGRVTISRDNSKNTLYLQMNSLRAEDTAVYYCARSLARTTAMDYWGEGTLVTVSSASTKGPSVFPLAPSSKSTSGGTAALGCLVKDYFPEPVTVSWNSGALTSGVHTFPAVLQSSGLYSLSSVVTVPSSSLGTQTYICNVNHKPSNTKVDKKVEPKSCDKTHTCPPCPAPELRGGPKVFLFPPKPKDTLYISREPEVTCVVVDVSHEDPEVKFNWYVDGVEVHNAKTKPREEQYNSTYRVVSVLTVLHQDWLNGKEYKCKVSNKALPAPIEKTISKAKGQPREPQVYTLPPSRDELTKNQVSLTCLVKGFYPSDIAVEWESNGQPENNYKTTPPVLDSDGSFFLYSKLTVDKSRWQQGNVFSCSVMHEALDYHFTKKDLSLSP
light: not shown
notes: EU numbering; copies: 2 + 2
With B7, the affinity, expressed as Kd, was 124 nM.

B8: IgG1-F1310 (antibody)
heavy: QVQLQESGPGLVKPSETLSLTCAVSGHSISHDHAWSWVRQPPGEGLEWIGFISYSGITNYNPSLQGRVTISRDNSKNTLYLQMNSLRAEDTAVYYCARSLARTTAMDYWGEGTLVTVSSASTKGPSVFPLAPSSKSTSGGTAALGCLVKDYFPEPVTVSWNSGALTSGVHTFPAVLQSSGLYSLSSVVTVPSSSLGTQTYICNVNHKPSNTKVDKKVEPKSCDKTHTCPPCPAPELRGGPKVFLFPPKPKDTLYISRTPEVTCVVVDVSHEDPEVKFNWYVDGVEVHNAKTKPREEQYNSTYRVVSVLTVLHQDWLNGKEYKCKVSNKALPAPIEKTISKAKGQPREPQVYTLPPSRDELTKNQVSLTCLVKGFYPSDIAVEWESNGQPENNYKTTPPVLDSDGSFFLYSKLTVDKSRWQQGNVFSCSVMHEALHYHVTLKLLSLSP
light: not shown
notes: EU numbering; copies: 2 + 2
B8 returned a Kd of 228 nM.

B9: IgG1-F1309 (antibody)
heavy: QVQLQESGPGLVKPSETLSLTCAVSGHSISHDHAWSWVRQPPGEGLEWIGFISYSGITNYNPSLQGRVTISRDNSKNTLYLQMNSLRAEDTAVYYCARSLARTTAMDYWGEGTLVTVSSASTKGPSVFPLAPSSKSTSGGTAALGCLVKDYFPEPVTVSWNSGALTSGVHTFPAVLQSSGLYSLSSVVTVPSSSLGTQTYICNVNHKPSNTKVDKKVEPKSCDKTHTCPPCPAPELRGGPKVFLFPPKPKDTLYISRTPEVTCVVVDVSHEDPEVKFNWYVDGVEVHNAKTKPREEQYNSTYRVVSVLTVLHQDWLNGKEYKCKVSNKALPAPIEKTISKAKGQPREPQVYTLPPSRDELTKNQVSLTCLVKGFYPSDIAVEWESNGQPENNYKTTPPVLDSDGSFFLYSKLTVDKSRWQQGNVFSCSVMHEALHYHVTAKALSLSP
light: not shown
notes: EU numbering; copies: 2 + 2
The molecule B9 showed an equilibrium dissociation constant (Kd) of 126 nM.

B10: IgG1-F1307 (antibody)
heavy: QVQLQESGPGLVKPSETLSLTCAVSGHSISHDHAWSWVRQPPGEGLEWIGFISYSGITNYNPSLQGRVTISRDNSKNTLYLQMNSLRAEDTAVYYCARSLARTTAMDYWGEGTLVTVSSASTKGPSVFPLAPSSKSTSGGTAALGCLVKDYFPEPVTVSWNSGALTSGVHTFPAVLQSSGLYSLSSVVTVPSSSLGTQTYICNVNHKPSNTKVDKKVEPKSCDKTHTCPPCPAPELRGGPKVFLFPPKPKDTLYISRTPEVTCVVVDVSHEDPEVKFNWYVDGVEVHNAKTKPREEQYNSTYRVVSVLTVLHQDWLNGKEYKCKVSNKALPAPIEKTISKAKGQPREPQVYTLPPSRDELTKNQVSLTCLVKGFYPSDIAVEWESNGQPENNYKTTPPVLDSDGSFFLYSKLTVDKSRWQQGNAFACSVMHEALHYHVTQKSLSLSP
light: not shown
notes: EU numbering; copies: 2 + 2
B10 gave a Kd of 144 nM.

B11: IgG1-F1311 (antibody)
heavy: QVQLQESGPGLVKPSETLSLTCAVSGHSISHDHAWSWVRQPPGEGLEWIGFISYSGITNYNPSLQGRVTISRDNSKNTLYLQMNSLRAEDTAVYYCARSLARTTAMDYWGEGTLVTVSSASTKGPSVFPLAPSSKSTSGGTAALGCLVKDYFPEPVTVSWNSGALTSGVHTFPAVLQSSGLYSLSSVVTVPSSSLGTQTYICNVNHKPSNTKVDKKVEPKSCDKTHTCPPCPAPELRGGPKVFLFPPKPKDTLYISRTPEVTCVVVDVSHEDPEVKFNWYVDGVEVHNAKTKPREEQYNSTYRVVSVLTVLHQDWLNGKEYKCKVSNKALPAPIEKTISKAKGQPREPQVYTLPPSRDELTKNQVSLTCLVKGFYPSDIAVEWESNGQPENNYKTTPPVLDSDGSFFLYSKLTVDKSRWQQGNAFACSVMHEALDYHVTQKSLSLSP
light: not shown
notes: EU numbering; copies: 2 + 2
B11 returned a Kd of 369 nM.

B12: IgG1-F1306 (antibody)
heavy: QVQLQESGPGLVKPSETLSLTCAVSGHSISHDHAWSWVRQPPGEGLEWIGFISYSGITNYNPSLQGRVTISRDNSKNTLYLQMNSLRAEDTAVYYCARSLARTTAMDYWGEGTLVTVSSASTKGPSVFPLAPSSKSTSGGTAALGCLVKDYFPEPVTVSWNSGALTSGVHTFPAVLQSSGLYSLSSVVTVPSSSLGTQTYICNVNHKPSNTKVDKKVEPKSCDKTHTCPPCPAPELRGGPKVFLFPPKPKDTLYISRTPEVTCVVVDVSHEDPEVKFNWYVDGVEVHNAKTKPREEQYNSTYRVVSVLTVLHQDWLNGKEYKCKVSNKALPAPIEKTISKAKGQPREPQVYTLPPSRDELTKNQVSLTCLVKGFYPSDIAVEWESNGQPENNYKTTPPVLDSDGSFFLYSKLTVDKSRWQQGNVFSCSVMHEALDYHVTKKELSLSP
light: not shown
notes: EU numbering; copies: 2 + 2
B12 registered a Kd of 192 nM.

The values above are taken from US20200199241A1 (Chugai, published 2020).
